According to the nanobody polyreactivity screen of Harvey et al. (2022):

Experiment: yeast display, Sf9 membrane polyspecificity reagent, FACS + sequencing; frameworks hold sequencing errors
How it was run: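 A nanobody's polyreactivity label depends on the gate it was sorted from. Yeast display cells were stained with 10% biotinylated, detergent-solubilized Sf9 membrane reagent for 1 hour at 4 °C, enriched on streptavidin microbeads and sorted by FACS. The low and high (top ~1%) gates were set on anti-HA fluorescence for expression and streptavidin fluorescence for reagent binding.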

Sequence | polyreactivity (PSR sort gate)
QVQLVESGGGLVQAGGSLRLSCAASGSTFSRYAMGWYRQAPGKERELVAAISSRGGSTYYADSVKGRFTISRDNAKNTVYLQMNSLKPEDTAVYYCNALSSYQNHVYPYDYWGQGTQVTVSS | high polyreactivity
QVQLVESGGGLVQAGGSLRLSCAASGSTFSRYAMGWYRQAPGKERELVAAISTRGGSTRYADSVKGRFTISRDNAKNTVYLQMNSLKPEDTAVYYCAALGQGRTSATSFVDYEYWGQGTQVTVSS | high polyreactivity
QVQLVESGGGLVQAGGSLRLSCAASGSTFSRYAMGWYRQAPGKERELVAAITRSGGSTYYADSVKGRFTISRDNAKNTVYLQMNSLKPEDTAVYYCAASRGRGGYGFDYWGQGTQVTVSS | high polyreactivity
QVQLVESGGGLVQAGGSLRLSCAASGSTFSSLIMGCYRQAPGKERELVAAISRSGGRTYYADSVKGRFTISRDNAKNTVYLQMNSLKPEDTAVYYCAADYVSVDRIRYGYWGQGTQVTVSS | high polyreactivity
QVQLVESGGGLVQAGGSLRLSCAASGSTFSSNAMGWYRKAPGKERELVAAISVNGGSTNYADSVKGRFTISRDNAKNTVYLQMNSLKPEDTAVYYCAAEPAKVAFYRGDYWGQGTQVTVSS | low polyreactivity
QVQLVESGGGLVQAGGSLRLSCAASGSTFSSNAMGWYRQAPGKERELVAAISWSGASTYYADSVKGRFTISRDNAKNTVYLQMNSLKPEDTAVYYCATVWQAKYYGNHRFGYWGQGTQVTVSS | low polyreactivity
QVQLVESGGGLVQAGGSLRLSCAASGSTFSSNAMGWYRQAPGKERELVAAITTSGGSTYYADSVKGRFTISRDNAKNTVYLEMNSLKPEDTAVYYCAADLVHASQWSIFLYGYWGQGTQVTVSS | low polyreactivity
QVQLVESGGGLVQAGGSLRLSCAASGSTFSSSAMGWYRQAAGKERELVAAITSSGGSPYYADSVKGRLTISRDNAKNTVYLQMNSLKPEDTAVYYCAAADVIFWLYYYWGQGTQLTVSS | low polyreactivity
QVQLVESGGGLVQAGGSLRLSCAASGSTFSSYAMGWYRQAPGKEREFVAAINTDGGSTYYADSVKGRFTISRDNAKNTVYLQMNSLKPEDTAVYYCAARYYWPWYSSYDYWGQGTQVTVSS | low polyreactivity
QVQLVESGGGLVQAGGSLRLSCAASGSTFSSYAMGWYRQAPGKERELVAAISKHAGSTYYADSVKGRFTISRDNAKNTVYLQMNSLKPEDTAVYYCAKDSSVQAYYGYWYTSTDDYWGQGTQVTVSS | low polyreactivity
QVQLVESGGGLVQAGGSLRLSCAASGSTFSSYAMGWYRQAPGKERELVAAISSRGGRTYYADSVKGRFTISRDNAKNTVYLQMNSLKPEDTAVYYCAVVPFTEHDYWGQGTQVTVSS | high polyreactivity
QVQLVESGGGLVQAGGSLRLSCAASGSTFSSYAMGWYRQAPGKERELVAGISWGGSSTDYADSVKGRFTISRDNAKNTVYLQMNSLKPEDTAVYYCARRYRRGWSTLDYWGQGTQVTVSS | low polyreactivity
QVQLVESGGGLVQAGGSLRLSCAASGSTFSSYTMGWYRQAPGKERELVAAISRSGGRTYYADSVKGRFTISRDNAKNTVYLQMNSLKPEDTAVYYCNAGLGIEYDYWGQGTQVTVSS | low polyreactivity
QVQLVESGGGLVQAGGSLRLSCAASGSTFSSYVMGWDRQAPGKERELVAAISSIGGSTYYADSVKGRFTISRDNAKNTVYLQMNSQKPEDTAVYYCPAEPPGSTYEGGYWGQGTQVTVSS | low polyreactivity
QVQLVESGGGLVQAGGSLRLSCAASGSTFSTNAMGWYRPAPGKERELVAAISRSGGSTYYADSVKGRFTHSRDNEKNTVYLHMNSLKPEDTAVYYCARVSGYRYDYWGQGTQVTVSS | high polyreactivity
QVQLVESGGGLVQAGGSLRLSCAASGSTFSTNAMGWYRQAPGKERELVAAIRWRGGRTYYADSVKGRFTISRDNAKNTVYLQMNSLKPEDTAVYYCAADYSFTGHRYTYGYWGQGTQVTVSS | high polyreactivity

Sequence | polyreactivity (PSR sort gate)
QVQLVESGGGLVQAGGSLRLSCAASGSTFSTNAMGWYRQAPGKERELVAAISRSGGSTYYADSVKGRFTISRDNAKNTVYLQMNSLKPEDTAVYYCARYSYRGTNVRYDYWGQGTQVTVSS | high polyreactivity
QVQLVESGGGLVQAGGSLRLSCAASGSTFSTNAMGWYRQAPGKERELVAAISWSDDDTYYADSVKGRFTISRDNAKNTVYLQMNSLKPEDTGVYYCAAEGVGPARVYQGGEYNYWGQGTQVTVSS | low polyreactivity
QVQLVESGGGLVQAGGSLRLSCAASGSTFSTNAMGWYRQAPGKERELVASITRSGGSTYYADSVKGRFTISRDNAKNTFYLLMNSLKPEDTAVYYCNADGYYDYDYGYWGQGTQVTVSS | low polyreactivity
QVQLVESGGGLVQAGGSLRLSCAASGSTFSTNVMGWYRQAPGKERELVAAISTIGGSTYADSVKGRFTISRDNAKNTVYLQMNSQKPEDTAVYYCAKRSRYPYYPYGYWGQGTQVTVSS | high polyreactivity
QVQLVESGGGLVQAGGSLRLSCAASGSTFSVNAMGRYRQATGKERELVATISGGITNYADSVKGRFTISRDNAKNTVYLQMNSLKPEDTAVYYCNTAYRHIWVTWAAYDYWGQGTQVTVSS | low polyreactivity
QVQLVESGGGLVQAGGSLRLSCAASGSTFSVNAMGWYRQAPGKERELVAAISSTGSTKYADSVKGRFTISRDNAKNTVYLQIISLKPEDTAVYCAASNADYEYYPFSDWYFSPYDYWGQGTQVTVSS | low polyreactivity
QVQLVESGGGLVQAGGSLRLSCAASGSTFSVYAMGLYRQAPGKERELVPAITWSGGSTYYADSVKGRFTISRDNAKNTVYLQMNSLKPEDTAVYYCNAERWLATPTVPWYLYNYWGQGTQVTVSS | low polyreactivity
QVQLVESGGGLVQAGGSLRLSCAASGSTFSWNTMGWYRQAPGIERELVAAINSGGSTYYADSVKGRFTISRDNAKNSVYLQMNSLKPEDTAVYYCAADWRGSYLYGYYYWGQGTQVTVSS | low polyreactivity
QVQLVESGGGLVQAGGSLRLSCAASGSTFSWYAMGWYRQAPGKERELVASISFSGGDTSYADSVKGRFTISRDNAKNTVYLQMNSLKPEDTAVYYCGKEYKYETDTKFDYWGQGTQVTVSS | low polyreactivity
QVQLVESGGGLVQAGGSLRLSCAASGSTFSYNAMGWSRQAPGKERELVAAISSAISTNYADSVKGRFTISRDNAKNTVYLQLNSLKPDDTAVYYCNKVPDFVFLISYQLYYTKRLGYWGQGTQVNVSS | low polyreactivity
QVQLVESGGGLVQAGGSLRLSCAASGSTFSYNAMGWYRPAPGKERELVAAISGSGGTTYYADSVKGRFTISRDNAKNTVYLQMNSLKPEDTAVYYCNAYVRRTRDYDYWGQGTQVTVSS | high polyreactivity
QVQLVESGGGLVQAGGSLRLSCAASGSTFSYNAMGWYRQAPGKERELVAAINLRGGNTYYADSVKGRFTNSRDNAKNTVYLQMNSLKPEDTAVYYCARTRRHSQTFDYWGQGTQVIVSS | high polyreactivity
QVQLVESGGGLVQAGGSLRLSCAASGSTFSYNAMGWYRQAPGKERELVAAISGSGGTTYYSDSVKGRFTISRDNAKNTVYLQMNSLKPEDTAVYYCAARPFRSWRYDYWGQGTQVTVSS | low polyreactivity
QVQLVESGGGLVQAGGSLRLSCAASGSTFSYNAMGWYRQAPGKERELVAAISRGDVSTYYADSVKGRFTISRDNAKNTVYLQMNSLKPEDTAVYYCADYWYGSQYKWRYDYWGQGTQVTVSS | low polyreactivity
QVQLVESGGGLVQAGGSLRLSCAASGSTFSYNAMGWYRQAPGKERELVAAISRSGGSTYYADSVKGRFTISRDNAKNTVYLQIKSLKPEFTAVYYFAADSPYGYYEGDYWGQGTQVTVSS | low polyreactivity
